# According to patent US11872270B2, “A*03 restricted peptides for use in immunotherapy against cancers and related methods” (Immatics Biotechnologies GmbH, priority 2018, dated 2024):
# Biological target: HLA-A*03:01 (Homo sapiens, UniProt P04439)
# Experiment: MHC binding assay (UV-ligand exchange, β2m ELISA)
# Details: binding to HLA-A*03:01, UV-ligand exchange, β2m ELISA
# Text: Candidate peptides for T cell based therapies according to the present invention were further tested for their MHC binding capacity (affinity). The individual peptide-MHC complexes were produced by UV-ligand exchange, where a UV-sensitive peptide is cleaved upon UV-irradiation and exchanged with the peptide of interest as analyzed. Only peptide candidates that can effectively bind and stabilize the peptide-receptive MHC molecules prevent dissociation of the MHC complexes. To determine the yield of the exchange reaction, an ELISA was performed based on the detection of the light chain (β2m) of stabilized MHC complexes. The assay was performed as generally described in Rodenko et al. (Rodenko et al., 2006) 96 well MAXISorp plates (NUNC) were coated over night with 2 ug/ml streptavidin in PBS at room temperature, washed 4× and blocked for 1 h at 37° C. in 2% BSA containing blocking buffer. Refolded HLA-A*02:01/MLA-001 monomers served as standards, covering the range of 15-500 ng/ml. Peptide-MHC monomers of the UV-exchange reaction were diluted 100-fold in blocking buffer. Samples were incubated for 1 h at 37° C., washed four times, incubated with 2 ug/ml HRP conjugated anti-β2m for 1 h at 37° C., washed again and detected with TMB solution that is stopped with […]. Absorption was measured at 450 nm. Candidate peptides that show a high exchange yield (preferably higher than 50%, most preferred higher than 75%) are generally preferred for a generation and production of antibodies or fragments thereof, and/or T cell receptors or fragments thereof, as they show sufficient avidity to the MHC molecules and prevent dissociation of the MHC complexes.
row,"Peptide exchange (MHC class I binding score, peptide exchange yield)",Substance
1,+++ (>50 = +++),1 (RVYPHKTLY; listed as Homo sapiens) [compound 1]
2,+++ (>50 = +++),2 (KVMPKQTWK; listed as Homo sapiens) [compound 2]
3,++++ (>75% = ++++),3 (LLYGNGPGYVLK; listed as Homo sapiens) [compound 3]
4,++++ (>75% = ++++),6 (SIFGLAPGK; listed as Homo sapiens) [compound 6]
5,++++ (>75% = ++++),7 (RLVELAGQSLLK; listed as Homo sapiens) [compound 7]
6,+++ (>50 = +++),9 (HVLYPVPLESY; listed as Homo sapiens) [compound 9]
7,+++ (>50 = +++),10 (KARDLRTPK; listed as Homo sapiens) [compound 10]
8,++ (>20% = ++),11 (PLPRPGAVLK; listed as Homo sapiens) [compound 11]
9,+++ (>50 = +++),12 (KVLTRNIEY; listed as Homo sapiens) [compound 12]
10,++++ (>75% = ++++),13 (AVAFFVLPSK; listed as Homo sapiens) [compound 13]
11,++ (>20% = ++),14 (VAFFVLPSK; listed as Homo sapiens) [compound 14]
12,+++ (>50 = +++),15 (RLYAPVVNISRL; listed as Homo sapiens) [compound 15]
13,+++ (>50 = +++),16 (KVFAEHKISY; listed as Homo sapiens) [compound 16]
14,++ (>20% = ++),17 (GGLSSQGVYY; listed as Homo sapiens) [compound 17]
15,++++ (>75% = ++++),18 (RLYYSFKNITK; listed as Homo sapiens) [compound 18]
16,++++ (>75% = ++++),19 (ALAAKLEVK; listed as Homo sapiens) [compound 19]
17,+++ (>50 = +++),20 (LLPTVLIKK; listed as Homo sapiens) [compound 20]
18,++ (>20% = ++),21 (SSLAELIAK; listed as Homo sapiens) [compound 21]
19,+++ (>50 = +++),22 (EGLFLLGCVK; listed as Homo sapiens) [compound 22]
20,+++ (>50 = +++),23 (RLSPGPRAY; listed as Homo sapiens) [compound 23]
21,++++ (>75% = ++++),24 (KLETGVVKK; listed as Homo sapiens) [compound 24]
22,++++ (>75% = ++++),25 (KTWAHCMSY; listed as Homo sapiens) [compound 25]

row,"Peptide exchange (MHC class I binding score, peptide exchange yield)",Substance
1,+++ (>50 = +++),26 (QLGYQAAVLK; listed as Homo sapiens) [compound 26]
2,++++ (>75% = ++++),27 (SGSTLECILYK; listed as Homo sapiens) [compound 27]
3,++++ (>75% = ++++),28 (STLECILYK; listed as Homo sapiens) [compound 28]
4,++ (>20% = ++),30 (ILDSSLLK; listed as Homo sapiens) [compound 30]
5,++++ (>75% = ++++),31 (HAFFPKTHR; listed as Homo sapiens) [compound 31]
6,+ (>10% = +),32 (LLDAEPPILY; listed as Homo sapiens) [compound 32]
7,+++ (>50 = +++),34 (AIGTPLIGK; listed as Homo sapiens) [compound 34]
8,++ (>20% = ++),35 (VLLLLSLLH; listed as Homo sapiens) [compound 35]
9,++++ (>75% = ++++),36 (QIRAELMKK; listed as Homo sapiens) [compound 36]
10,++ (>20% = ++),37 (EVILTTKTPK; listed as Homo sapiens) [compound 37]
11,+ (>10% = +),38 (SLFPYYNNLY; listed as Homo sapiens) [compound 38]
12,++ (>20% = ++),39 (KTQFPQLK; listed as Homo sapiens) [compound 39]
13,+++ (>50 = +++),40 (ALNDRFAGY; listed as Homo sapiens) [compound 40]
14,++ (>20% = ++),41 (RLGAARGQLR; listed as Homo sapiens) [compound 41]
15,++++ (>75% = ++++),42 (RVCMTVDSLVNK; listed as Homo sapiens) [compound 42]
16,++++ (>75% = ++++),43 (TVYDSIWCNMK; listed as Homo sapiens) [compound 43]
17,+ (>10% = +),44 (HAFPPGPNY; listed as Homo sapiens) [compound 44]
18,++++ (>75% = ++++),47 (ALFGNALVFY; listed as Homo sapiens) [compound 47]
19,+++ (>50 = +++),48 (KGWNGQIFK; listed as Homo sapiens) [compound 48]
20,++++ (>75% = ++++),49 (ITAPLMPLGK; listed as Homo sapiens) [compound 49]
21,++ (>20% = ++),50 (HSAGIFSMY; listed as Homo sapiens) [compound 50]
22,+++ (>50 = +++),51 (VTADGALAMEK; listed as Homo sapiens) [compound 51]

row,"Peptide exchange (MHC class I binding score, peptide exchange yield)",Substance
1,+++ (>50 = +++),53 (KQALSLVRK; listed as Homo sapiens) [compound 53]
2,+++ (>50 = +++),54 (GVTITKTLK; listed as Homo sapiens) [compound 54]
3,+++ (>50 = +++),55 (RLSAESKDLLK; listed as Homo sapiens) [compound 55]
4,+++ (>50 = +++),56 (TTYYPSPLNK; listed as Homo sapiens) [compound 56]
5,++++ (>75% = ++++),58 (VLYRPQLEK; listed as Homo sapiens) [compound 58]
6,+++ (>50 = +++),59 (KINQYIIKK; listed as Homo sapiens) [compound 59]
7,+++ (>50 = +++),60 (VVFPFPVNKR; listed as Homo sapiens) [compound 60]
8,++++ (>75% = ++++),61 (SLYDSEPRKK; listed as Homo sapiens) [compound 61]
9,++++ (>75% = ++++),62 (GIFPKIMPK; listed as Homo sapiens) [compound 62]
10,++++ (>75% = ++++),63 (SSFRPLLSK; listed as Homo sapiens) [compound 63]
11,+++ (>50 = +++),65 (RTIEELQNK; listed as Homo sapiens) [compound 65]
12,+++ (>50 = +++),66 (RVKEIVINK; listed as Homo sapiens) [compound 66]
13,+++ (>50 = +++),67 (VVREILHAQTLK; listed as Homo sapiens) [compound 67]
14,++ (>20% = ++),68 (KGPMAGILAY; listed as Homo sapiens) [compound 68]
15,++++ (>75% = ++++),70 (VTAVASLLK; listed as Homo sapiens) [compound 70]
16,++++ (>75% = ++++),72 (KLYPQCLQK; listed as Homo sapiens) [compound 72]
17,++++ (>75% = ++++),73 (RCFSGPYLNK; listed as Homo sapiens) [compound 73]
18,++++ (>75% = ++++),75 (IIFVPEMNK; listed as Homo sapiens) [compound 75]
19,+++ (>50 = +++),76 (IINESLLFY; listed as Homo sapiens) [compound 76]
20,+++ (>50 = +++),78 (KTGTFVLYKS; listed as Homo sapiens) [compound 78]
